Assay results as given in patent publication US20090291081A1 (AbbVie / Abbott, published 2009).

T1: human IL-1α (human, UniProt P01583 113-271)
T1 sequence (looked up): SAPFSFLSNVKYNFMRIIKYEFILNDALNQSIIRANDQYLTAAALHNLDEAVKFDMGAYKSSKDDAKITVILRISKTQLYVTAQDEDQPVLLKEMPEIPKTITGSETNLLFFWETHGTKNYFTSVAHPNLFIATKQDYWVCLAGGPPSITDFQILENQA


Legend:
[1] = target: T1, human IL-1α; assay: cell-based or functional assay
[2] = target: T1, human IL-1α; assay: Table 62 IC50; RBA presumed

ND50 [1] | IC50 [2] | Binder
20 nM |  | ABT1-141-29 (other) VL: DIQVTQSPSSLSASVGDRVTITCRASQWIQKQLAWYQLKPGKAPKLLIYSSSYLQSGVPSRFSGSGSGTDFTLTISSLQPEDFATYYCQQHLRVPFTFGQGTKVEIKR
10 nM |  | ABT1-141-32 (other) VL: DIQMTQSPSSLSASVGDRITITCRASQWIQKQLAWYQLKPGKAPKLLIYSSSYLQSGVPSRFSGSGSGTDFTLTISSLQPEDFATYYCQQHLRVPMTFGQGTKVEIKR
> 10 nM |  | ABT1-141-562 (other) VL: DIQMTQSPSSLSASVGDRVTITCRANQWIQKQLAWYQQKPGKAPKLLIYSSSWLQSGVPSRFSGSGSGTDFTLTISSLQPEDFATYYCQQHLRVPMTFGQGTKVEIKR
3 nM |  | ABT1-141-33 (other) VL: DIQMTQSPSSLSASVGDRVTITCRASQWIQKQLAWYQLKPGKAPKLLIYSSSWLQSGVPSRFSGSGSGTDFTLTISSLQPEDFATYYCQQHLRVPMTFGQGTKVEIKR
2 nM |  | ABT1-141-31 (other) VL: DIQMTQSPSSLSASVGDRVTITCRASQWIQKQLAWYQQKPGKAPKLLIYSSSWLQSGVPSRFSGSGSGTDFTLTISSLQPEDFATYYCQQHLRVPMTFGQGTKVEIKR
0.713 nM |  | ABT1-122-750x (other) VL: DIQMTQSPSSLSASVGDRVAITCSASQHIWTEISWYQQKPGKAPKLLIYGSASRQKGVPSRFSGSGSGTDFTLTISSLQPEDFATYYCKQFAYFPNTFGQGTKVEIKR
100 nM |  | ABT1-149 (other) VL: DIQMTQSPSSLSASVGDRVTITCRASQSISSYLNWYQQKPGKAPKLLIGGLSGLQSGVPSRFSGSGSGTDFTLTISSLQPEDFATYYCMQWWRWPSTFGQGTKVEIKRAAAEQKLISEED
500 nM |  | ABT1-99 (other) VH: EVQLLESGGGLVQPGGSLRLSCAASGFTFGKYSMTWVRQAPGKGLEWVSVIDPWGHYTYYADSVKGRFTISRDNSKNTLYLQMNSLRAEDTAVYYCAKSVDATLLRRYFDYWGQGTLVTVSS
3000 nM |  | ABT1-97 (other) VH: EVQLLESGGGLVQPGGSLRLSCAASGFTFWEYDMYWVRQAPGKGLEWVSRISGSGRYTYYADSVKGRFTISRDNSKNTLYLQMNSLRAEDTAVYYCAKRSLTRPSQFDYWGQGTLVTVSS
0.61 nM | 500 pM | ABT1-95-21 (other, VK dAb) VL: DIQMTQSPSSLSASVGDRVTITCRASQPIVRNLRWYQQKPGKAPKLLIYSSSYLEPGVPSRFSGSGSGTDFTLTISSLQPEDFATYYCQQGYRWPVTFGQGTKVEIKR
0.006 nM |  | ABT1-95-184 (other) VL: DIQMTQSPSSLSASVGDRVTITCRASRTPVRNLRWYQQKPGKAPKLLIYSRSYLEPGVPSRFSGSGSGTDFTLTISSLQPEDFATYHCLQGYRWPPTFGQGTKVEIKR
0.004 nM |  | ABT1-95-178 (other) VL: DIQMTQSPSSLSASVGDRVTITCRASQPIVRNLRWYQQKPGKAPKLLIYSVSYLEPGVPSRFSGSGSGTDFTLTISSLQPEDFATYHCRQGYRWPVTFGQGTKVEIKR
0.024 nM |  | ABT1-95-A6 (other) VL: DIQMTQSPSSLSASVGDRVTITCRASKPGVRNMRWYQQKPGKAPKLLIYAKSYLEPGVPSRFSGSGSGTDFTLTISSLQPEDFATYHCKQGYRWPVQFGQGTKVEIKR
0.171 nM |  | ABT1-95-172 (other) VL: DIQMTQSPSSLSASVGDRVTITCRASRPIVRNLRWYQQKPGKAPKLLIYAVSYLEPGVPSRFSGSGSGTDFTLTISSLQPEDFATYHCQQGYRWPVTFGQGTKVEIKR
0.011 nM |  | ABT1-95-A3 (other) VL: DIQMTQSPSSLSASVGDRVTITCRASKPGVRNMRWYQQKPGKAPKLLIYSVSYLEPGVPSRFSGSGSGTDFTLTISSLQPEDFATYHCLQGYRWPPTFGQGTKVEIKR
0.2 nM |  | ABT1-95-170 (other) VL: DIQMTQSPSSLSASVGDRVTITCRASRPIVRNLRWYQQKPGKAPKLLIYASSYLEPGVPSRFSGSGSGTDFTLTISSLQPEDFATYHCQQGYRWPVTFGQGTKVEIKR
0.151 nM |  | ABT1-95-173 (other) VL: DIQMTQSPSSLSASVGDRVTISCRASRPIVRNLRWYQQKPGKAPKLLIYSSSYLEPGVPSRFSGSGSGTDFTLTISSLQPEDFATYHCRQGYRWPVTFGQGTKVEIKR

ND50 [1] | IC50 [2] | Binder
0.093 nM |  | ABT1-95-169 (other) VL: DIQMTQSPSSLSASVGDRVTITCRASQPIVRNLRWYQQKPGKAPKLLIYAVSYLEPGVPSRFSGSGSGTDFTLTISSLQPEDFATYHCQQGYRWPVTFGQGTKVEIKR
0.027 nM |  | ABT1-95-176 (other) VL: DIQMTQSPSSLSASVGDRVTITCRASRPIVRNLRWYQQKPGKAPKLLIYAVSYLEPGVPSRFSGSGSGTDFTLTISSLQPEDFATYHCRQGYRWPVTFGQGTKVEIKR
0.016 nM |  | ABT1-95-A5 (other) VL: DIQMTQSPSSLSASVGDRVTITCRASRTPVRNLRWYQQKPGKAPKLLIYSRSFLEPGVPSRFSGSGSGTDFTLTISSLQPEDFATYHCLQGYRWPPTFGQGTKVEIKR
0.022 nM |  | ABT1-95-179 (other) VL: DIQMTQSPSSLSASVGDRVTITCRASQPIVRNLRWYQQKPGKAPKLLIYSSSYLEPGVPSRFSGSGSGTDFTLTISSLQPEDFATYHCRQGYRWPPTFGQGTKVEIKR
0.017 nM |  | ABT1-95-175 (other) VL: DIQMTQSPSSLSASVGDRVTITCRASRPIVRNLRWYQQKPGKAPKLLIYASSYLEPGVPSRFSGSGSGTDFTLTISSLQPEDFATYHCRQGYRWPVTFGQGTKVEIKR
0.059 nM |  | ABT1-95-171 (other) VL: DIQMTQSPSSLSASVGDRVTITCRASRPIVRNLRWYQQKPGKAPKLLIYSVSYLEPGVPSRFSGSGSGTDFTLTISSLQPEDFATYHCQQGYRWPVTFGQGTKVEIKR
0.71 nM | 500 pM | ABT1-95-26 (other, VK dAb) VL: DIQMTQSPSSLSASVGDRVTITCRASQPIVRNLRWYQQKPGKAPKLLIYSSSYLEPGVPSRFSGSGSGTDFTLTISSLQPEDFATYYCGQGYRWPVTFGQGTKVEIKR
0.43 nM | 500 pM | ABT1-95-25 (other, VK dAb) VL: DIQMTQSPSSLSASVGDRVTITCRASQPIVRNLRWYQQKPGKAPKLLIYSSSYLEPGVPSRFSGSGSGTDFTLTISSLQPEDFATYYCDQGYRWPVTFGQGTKVEIKR
> 10 nM | > 1000 pM | ABT1-95-30 (other, VK dAb) VL: DIQMTQSPSSLSASVGDRVTITCRASQPIVRNLRWYQQKPGKAPKLLIYSSSYLEPGVPSRFSGSGSGTDFTLTISSLQPEDFATYYCQQSYRWPVTFGQGTKVEIKR
1 nM | > 500 pM | ABT1-95-29 (other, VK dAb) VL: DIQMTQSPSSLSASVGDRVTITCRASQPIVRNLRWYQQKPGKAPKLLIYSSSYLEPGVPSRFSGSGSGTDFTLTISSLQPEDFATYYCQQGYQWPVTFGQGTKVEIKR
0.27 nM | 500 pM | ABT1-95-24 (other, VK dAb) VL: DIQMTQSPSSLSASVGDRVTITCRASQPIVRNLRWYQQKPGKAPKLLIYSSSYLEPGVPSRFSGSGSGTDFTLTISSLQPEDFATYYCCQGYRWPVTFGQGTKVEIKR
1 nM | 500 pM | ABT1-95-27 (other, VK dAb) VL: DIQMTQSPSSLSASVGDRVTITCRASQPIVRNLRWYQQKPRKAPKLLIYSSSYLEPGVPSRFSGSGSGTDFTLTISSLQPEDFATYYCAQGYRWPVTFGQGTKVEIKR
1 nM | 500 pM | ABT1-95-22 (other, VK dAb) VL: DIQMTQSPSSLSASVGDRVTITCRASQPIVRNLRWYQQKPGKAPKLLIYSSSYLEPGVPSRFSGSGSGTDFTLTISSLQPEDFATYYCQQGYHWPVTFGQGTKVEIKR
3.3 nM | > 500 pM | ABT1-95-31 (other, VK dAb) VL: DIQMTQSPSSLSASVGDRVTITCRASQPIVRNLRWYQQKPGKAPKLLIYSSSYLEPGVPSRFSGSGSGTDFTLTISSLQPEDFATYYCQQGYLWPVTFGQGTKVEIKR
0.5 nM | 500 pM | ABT1-95-23 (other, VK dAb) VL: DIQMTQSPSSLSASVGDRVTITCRASQPTVRNLRWYQQKPGKAPKLLIYSSSYLEPGVPSRFSGSGSGTDFTLTISSLQPEDFATYYCQQGYRWPVTFGQGTKVEIKR
2 nM | > 500 pM | ABT1-95-28 (other, VK dAb) VL: DIQMTQSPSSLSASVGDRVTITCRASQPIVRNLRWYQQKPGKAPKLLIYSSSYLEPGVPSRFSGSGSGTDFTLTISSLQPEDFATYYCQQGYGWPVTFGQGTKVEIKR
1.2 nM | > 500 pM | ABT1-95-32 (other, VK dAb) VL: DIQMTQSPSSLSASVGDRVTITCRASQPIVRNLRWYQQKPGKAPKLLIYSSSYLEPGVPSRFSGSGSGTDFTLTISSLQPEDFATYYCQQGYSWPVTFGQGTKVEIKR
